The nature of the data set: yeast display, Sf9 membrane polyspecificity reagent, FACS + sequencing; frameworks hold sequencing errors. The method in brief: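 Polyreactivity labels are assigned by the sorting gate from which each nanobody was recovered. The gates were low and high (top ~1%), set on anti-HA fluorescence for expression and streptavidin fluorescence for reagent binding. Before sorting, galactose-induced (36–48 hours) yeast display cells were stained for 1 hour at 4 °C with 10% biotinylated, detergent-solubilized Sf9 membrane reagent.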
Consider “QVQLVESGGGLVQAGGSLRLSCAASGRIFGLYAMGWYRQAPGKERELVAAISRGGGSTYYADSVKGRFTISRDNAKNTVYLQMNSLKPEDTAVYYCATGLGYFSRLDYWGQGTLVTVSS”, for which the “polyreactivity (PSR sort gate)” value was “low polyreactivity”.

On to “QVQLVESGGGLVQAGGSLRLSCAASGRIFGLYAMGWYRQAPGKERELVAAISRGGGSTYYADSVKGRFTISRDNAKNTVYLQMNSLKPEDTAVYYCATGLGYFSRLDYWGQGTQVTVSS”, for which the “polyreactivity (PSR sort gate)” value is given as “low polyreactivity”.

On to “QVQLVESGGGLVQAGGSLRLSCAASGRIFGLYAMGWYRQAPGKERELVAAISWSGGRTYYADSVKGRFTISRDNAKNTVYLQMNSLKPEDTAVYYCAARSYYRSQYGFDFWGQGTQVTVSS”, for which the “polyreactivity (PSR sort gate)” value is “high polyreactivity”.

In the case of “QVQLVESGGGLVQAGGSLRLSCAASGRIFGLYAMGWYRQAPGKERELVAAITSSTGSTYYADSVKGRFTISRDNAKNTVYLQMNSLKPEDTAVYYCAADLYSPSIYGYIYYTWLDYWGQGTQVTVSS”, the “polyreactivity (PSR sort gate)” value is recorded as “high polyreactivity”.

For the sequence “QVQLVESGGGLVQAGGSLRLSCAASGRIFGLYAMGWYRQAPGKERELVASISQSGANTYYADSVKGRFTISRDNAKNTVYLQMNCQKPEDTAVSYCAAKRYDRYYYWVGYWGQGTQVIVSS”, the “polyreactivity (PSR sort gate)” value is given as “low polyreactivity”.

Take “QVQLVESGGGLVQAGGSLRLSCAASGRIFGLYVLGGYRQAPGKERELVAAIDDSGGDTYDADSVKGRFTISRDNAKNTVYIQMNSLKPEDTAVYYCPADYWGYYYGGYYYLRDYWGQGTQVTVSS”: the “polyreactivity (PSR sort gate)” value was “high polyreactivity”.

Regarding “QVQLVESGGGLVQAGGSLRLSCAASGRIFGPNAMGWYRQAPGKERELVAAISWSGSSTRYADSVKGRFTISRDNAKNTVYLQMNSLKPEDTAVYYCAARRQSPDRYTKYEYWGQGTQVTVSS”, the “polyreactivity (PSR sort gate)” value is given as “low polyreactivity”.

On to “QVQLVESGGGLVQAGGSLRLSCAASGRIFGPNDMGWYRQAPGKDRELVAAISWSGSSTRYADSVKGRFTISRDNAKNTVYLQMNSLKPEDTAGYYCAADRYWHSVVRDEDYWGQGTQVTVSS”, for which the “polyreactivity (PSR sort gate)” value was “low polyreactivity”.

Consider “QVQLVESGGGLVQAGGSLRLSCAASGRIFGPNDMGWYRQAPGKERELVAAITDSGDITYYADSVKGRFTISRDIAKNSVYLQMNSLKPEDTAVYYCAADHTYENEYWGQGTQVTVSS”, for which the “polyreactivity (PSR sort gate)” value is given as “low polyreactivity”.

Take “QVQLVESGGGLVQAGGSLRLSCAASGRIFGPYAMGWYRQAPGKERELVAAIRASSSSTYYADSVKGRFTISRDNAKNTVYVQMNSLKPEDTAVYYCAADWYYGYAWKYGYWGQGTQVTVSS”: the “polyreactivity (PSR sort gate)” value is recorded as “low polyreactivity”.

On to “QVQLVESGGGLVQAGGSLRLSCAASGRIFGPYAMGWYRQAPGKERELVAAISGRGSSTYYADSVKGRFTLSRDNAKNTVYLQMNSLKPEDTAVYYCAKYPTYSYDYWGQGTQVTVSS”, for which the “polyreactivity (PSR sort gate)” value was “high polyreactivity”.

As for “QVQLVESGGGLVQAGGSLRLSCAASGRIFGPYAMGWYRQAPGKERELVASISYSRGSTYYADSVKGRFTISRDNANNTVYLQMNSLKPEDTAVYYCAKGGYWRGYNYWGQGSQVTVSS”, the “polyreactivity (PSR sort gate)” value was “low polyreactivity”.

For “QVQLVESGGGLVQAGGSLRLSCAASGRIFGPYTMGWYRQEPGKERELVAAITGRVVSTYYADSVKGRFTISRDNAKNTVYLQMNSLQPEDTAVYYCAARIYYYNTRGDYWAQGTQVTVSS”, the “polyreactivity (PSR sort gate)” value is reported as “high polyreactivity”.

In the case of “QVQLVESGGGLVQAGGSLRLSCAASGRIFGPYVMGWYRQAPGKERELVAAISTSGTSTYYADSVKGRFTISRDNAKNTVYLQMNSLKPEDTAVYDCGIRSGARHRLMDYWGQGTQVTVSS”, the “polyreactivity (PSR sort gate)” value is reported as “low polyreactivity”.

“QVQLVESGGGLVQAGGSLRLSCAASGRIFGQNAMGWYRQAPGKERELVAAITGSGGRTYYADSVKGRFTISRDNAKNTVYLQMNSQKPEDTAVYYCAVRVTSYYRTMDYWGQGTQVTVSS”: the “polyreactivity (PSR sort gate)” value is reported as “low polyreactivity”.

For the sequence “QVQLVESGGGLVQAGGSLRLSCAASGRIFGQYAMAWYRHAPGKERELVAAITQRGGSTYYADSVKGRFTISRDNAKNTVYLQMNSLKPEDTAGYYCNKRYRFTGIRDPFDYWGQGTQVTVSS”, the “polyreactivity (PSR sort gate)” value is recorded as “low polyreactivity”.

On to “QVQLVESGGGLVQAGGSLRLSCAASGRIFGQYAMGWYRQAPGKERELVAAISWRGGTTYYADSVKGRFTISRDNAKNTVYLQMNSLKPEDTAVYYCNADVWVYPYDYWGQGTQVTVSS”, for which the “polyreactivity (PSR sort gate)” value is listed as “low polyreactivity”.

For “QVQLVESGGGLVQAGGSLRLSCAASGRIFGRNAMAWYRQAPGKERELVAAISTSGGTYYADSVKGRFTISRDNAKNTVYLQMISLKPEDTAVYYCNDRGRTQQRWVDYWGQRTQVTVSS”, the “polyreactivity (PSR sort gate)” value is given as “high polyreactivity”.

Consider “QVQLVESGGGLVQAGGSLRLSCAASGRIFGRNAMGWYRQAPGKERELVAAITYSGGRTYYADSVKGRFTISRDNAKNTVYLQMNSLKPEDTAVYYCAAYSFAYRYNYWGQGTQVTVSS”, for which the “polyreactivity (PSR sort gate)” value is on record as “high polyreactivity”.

In the case of “QVQLVESGGGLVQAGGSLRLSCAASGRIFGRNTMGWYRQAPGKEREFVAAITWSGGSTYYADSVKGRFTISRDNAKNTVYLQMNSLKPEDTAVYYCAAPSYYRYDYWGQGTQVTVSS”, the “polyreactivity (PSR sort gate)” value is on record as “high polyreactivity”.

“QVQLVESGGGLVQAGGSLRLSCAASGRIFGRYAMGWYRQAPGKERELVAAITSGGRTSYADSVKGRFTISRDNAKNTVYLQMNSLKPEDTSVYYCNVVSRNSIRFDYWGQGTQVTVSS”: the “polyreactivity (PSR sort gate)” value is listed as “high polyreactivity”.

As to “QVQLVESGGGLVQAGGSLRLSCAASGRIFGRYAMGWYRQAPGKERELVAAITSSGRTYYADSVKGRFTISRDNAKNTVYLQMNSLKPEDTAVYYCNAVARYTKYNYWGQGTQVTVSS”, the “polyreactivity (PSR sort gate)” value was “high polyreactivity”.

Take “QVQLVESGGGLVQAGGSLRLSCAASGRIFGRYAMGWYRQAPGKERELVASITYRGGGTYYADSVKGRFTISRDNAKNTVYLQMNSLKAEDTAVYYCAAALSNVRNVRSPYDYWGQGTQVTVSS”: the “polyreactivity (PSR sort gate)” value was “high polyreactivity”.

Regarding “QVQLVESGGGLVQAGGSLRLSCAASGRIFGRYVMGWYRQAPGKERELVAAITSGGSTYYADSVKGRFTISRDNAKNTVYLQMNSLKPEDTAVYYCATRLFYPRFYYWGQGTQVTVSS”, the “polyreactivity (PSR sort gate)” value was “high polyreactivity”.

In the case of “QVQLVESGGGLVQAGGSLRLSCAASGRIFGRYVMGWYRQAPGKERELVAVITGGGTRTYYADSVKGRFTISRDNAKNTVYLQMNSLKPEDTAVYYCAAPYRPDVDYWGQGTQVTVSS”, the “polyreactivity (PSR sort gate)” value is “high polyreactivity”.

Consider “QVQLVESGGGLVQAGGSLRLSCAASGRIFGSNTLGWYRQAPGKEREMVAAISRRGGSTYYADSVKGRFTISRDNAKNTVYLQINSLKPEDTAVYYCAAVGTGSSLRYDYWGQGTQVTVSS”, for which the “polyreactivity (PSR sort gate)” value is “high polyreactivity”.

On to “QVQLVESGGGLVQAGGSLRLSCAASGRIFGSYAMGWYRQAPGKEREFVAAISVGSGSTYYADSVKGRFTISRDNAKNTVYLQMNSLKPEDTAVYYCAAENLYIDPRDWYGTWDTGYYWGQGTQVTVSS”, for which the “polyreactivity (PSR sort gate)” value is listed as “high polyreactivity”.

As for “QVQLVESGGGLVQAGGSLRLSCAASGRIFGSYAMGWYRQAPGKERELVAAINWRGGSTFYADSVKGRFTISRDNAKNTVYLQMNSLKPEDTAVYSCARRGYRQSGDYWGQGTQVTVSS”, the “polyreactivity (PSR sort gate)” value is on record as “low polyreactivity”.

As for “QVQLVESGGGLVQAGGSLRLSCAASGRIFGSYAMGWYRQAPGKERELVAAISGDGDSTYYADSVKGRFTISRDNAKNTVYFQMNSLKPEDTAVYYCAAEPNVYFSVFVLFPSDYWGQGTQVTVSS”, the “polyreactivity (PSR sort gate)” value is “low polyreactivity”.

Regarding “QVQLVESGGGLVQAGGSLRLSCAASGRIFGSYVMGWYRQAPGKERELVAAISFSGDTTYYADSVKGRFTISRDNAKNTVYLQMNSLKPEDTAVYYCAAEFPQGYYAFKYDYWGQGTQVTVSS”, the “polyreactivity (PSR sort gate)” value is recorded as “high polyreactivity”.

For “QVQLVESGGGLVQAGGSLRLSCAASGRIFGTNAMGWYRQAPGKEREMVATITRGGGNTYYADSVKGRFTISRDNAKNTVYLQMNSLKPEDTAVYYCAAKFHRFAWFSHYDYWGQGTQVTVSS”, the “polyreactivity (PSR sort gate)” value is “low polyreactivity”.

“QVQLVESGGGLVQAGGSLRLSCAASGRIFGTYAMGWYRQAPGKERELGAAITQSGGRTYYADSVKGRFTISRDNAKKTDYLQMKSLKPEDTAVYYCNKVTYRGIGLGYDYWGQGTQVTVSS”: the “polyreactivity (PSR sort gate)” value is “high polyreactivity”.

Turning to “QVQLVESGGGLVQAGGSLRLSCAASGRIFGTYAMGWYRQAPGKERELVAVITRGGGTKYADSVKGRFTISRDNAKNTVYLQMNSLKPEDTAVYYCAARGRYYGYNYWGQGTQVTVSS”, the “polyreactivity (PSR sort gate)” value was “high polyreactivity”.

Consider “QVQLVESGGGLVQAGGSLRLSCAASGRIFGTYGMGWYRPAPGKERELVAAISGGGSTNYADSVKGRFTISRDNAKNTVYLQMNSLKPEDTAVYYCATRWYRFYPSDYWGQGTQVTVSS”, for which the “polyreactivity (PSR sort gate)” value is “low polyreactivity”.

Take “QVQLVESGGGLVQAGGSLRLSCAASGRIFGTYTMGWYRQAPGKERELVASIRFGGSTYYADSVKGRFTISRDNAKNSVYLQMNSLKPEDTAVYYCNRVYGYNRRYGYWGQGTQVTVSS”: the “polyreactivity (PSR sort gate)” value was “high polyreactivity”.

For “QVQLVESGGGLVQAGGSLRLSCAASGRIFGVNAMGWYRQAPGKERELVAAISRSGGSTYYADSVKGRFTISRDNAKNTVYLQMNSLKPEDTAVYYCAAVVKYRYSAYGGDYWRQGTQVTVSS”, the “polyreactivity (PSR sort gate)” value was “high polyreactivity”.

Turning to “QVQLVESGGGLVQAGGSLRLSCAASGRIFGVNAMGWYRQAPGKERELVAAISWSGGSTYYADSVKGRFTISRDNAKNTVYLQMNSLKPEDTAVYYCAADIWFYTYYLGQGTQVTVSS”, the “polyreactivity (PSR sort gate)” value is “high polyreactivity”.

For the sequence “QVQLVESGGGLVQAGGSLRLSCAASGRIFGVYAMGWYRQAPGKERELVAAIRGDGSTNYADSVKGRFTISRDNAKNTVYLQMNSLKPEDTAVYYCATDLGIYSGSPWGYYYWGQGTQVTVSS”, the “polyreactivity (PSR sort gate)” value was “low polyreactivity”.

On to “QVQLVESGGGLVQAGGSLRLSCAASGRIFGVYAMGWYRQAPGKERELVAAISFSGGRTYYADSVKGRFTISRDNAKNTVYLQMNSLKPEDTAVYYCSALGPYDWLWAGDYWGQGTQVTVSS”, for which the “polyreactivity (PSR sort gate)” value is given as “low polyreactivity”.

On to “QVQLVESGGGLVQAGGSLRLSCAASGRIFGVYAMGWYRQAPGKERELVAAISGSTTLTYYADSVKGRFTISRDTAKNTVDLQMNSLKPEDTAVYYCAARSYTPSYKMDYWGQGTKVTVSS”, for which the “polyreactivity (PSR sort gate)” value was “high polyreactivity”.

As for “QVQLVESGGGLVQAGGSLRLSCAASGRIFGVYAMGWYRQAPGKERELVAAITARGGSTYYADSVKGRFTISRDNAKNTVYLQMNSLKPEDTAVYYCATRLYKRTRTITYGYWGQGTQVTVSS”, the “polyreactivity (PSR sort gate)” value is “high polyreactivity”.

The values above are taken from the nanobody polyreactivity screen of Harvey et al. (2022).
